Results from article PMC12800137.

Molecular target: E4F1 (UniProt Q66K89)
Test: co-IP, immunoblot
Details: reference: PA28γ wild type; sites T23

With PA28γ (from UniProt P61289) T23A the “binding against the reference” value was “weaker”.
